We go through 52 molecules from publication PMC4072508, “Genome-Wide Prediction and Validation of Peptides That Bind Human Prosurvival Bcl-2 Proteins” (PLoS Computational Biology, 2014).

In the assay the target is Bcl-xL, Q07817. In words: peptide SPOT array, c-Myc-tagged receptor at 1 uM or 100 nM, anti-c-Myc-Cy3.
Sequence of Bcl-xL, Q07817 (Q07817 1-209): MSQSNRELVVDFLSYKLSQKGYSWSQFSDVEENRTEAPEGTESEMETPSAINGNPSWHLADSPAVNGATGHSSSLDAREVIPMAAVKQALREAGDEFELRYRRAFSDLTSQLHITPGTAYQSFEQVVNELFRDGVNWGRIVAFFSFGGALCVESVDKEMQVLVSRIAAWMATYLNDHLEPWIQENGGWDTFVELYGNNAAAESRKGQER

B1: MYH6 (peptide)
chain: KANLEKVSRTLEDQANEYRVKLEEAQ
For the molecule B1, the SPOT signal as a fraction of Bim BH3's signal on the same receptor and array was determined as 0.02.

B2: PPIL6 (peptide)
chain: NGQFLGDALDLQKWAHEVWDIVDIKP
For the molecule B2, the SPOT signal as a fraction of Bim BH3's signal on the same receptor and array came out at 0.03.

B3: C6orf223 (peptide)
chain: RGRTRGWVQTLARMLRRTRGPVERAA
Molecule B3 displayed an SPOT signal as a fraction of Bim BH3's signal on the same receptor and array of 0.66.

B4: FEM1A (peptide)
chain: YKGHREIARYLLEQLAQVNRRSAKGN
In turn, B4 registered an SPOT signal as a fraction of Bim BH3's signal on the same receptor and array of 0.81.

B5: C8orf37 (peptide)
chain: TNISWRACDHDRCIACDFLVVSYDDY
Turning to B5, the SPOT signal as a fraction of Bim BH3's signal on the same receptor and array came to 0.03.

B6: USP36 (peptide)
chain: HRTSNVLTLSDKRFANFSGGKITKDV
Turning to B6, the SPOT signal as a fraction of Bim BH3's signal on the same receptor and array was 1.11.

B7: NUP210 (peptide)
chain: VKAVDPTSGQLYGLARELSDEIQVQV
In the case of B7, the SPOT signal as a fraction of Bim BH3's signal on the same receptor and array was 0.02.

B8: TNKS (peptide)
chain: HPKRKQVTELDLRKGANVNEKNKDFM
The molecule B8 came in with an SPOT signal as a fraction of Bim BH3's signal on the same receptor and array of 0.38.

B9: VWA3B (peptide)
chain: LARIRRRIKWLQDGSQSLFGRLHNDC
Regarding B9, the SPOT signal as a fraction of Bim BH3's signal on the same receptor and array worked out at 0.56.

B10: INCA1 (peptide)
chain: DQEEACASRQDHSLASFSTVTARRNP
For the molecule B10, the SPOT signal as a fraction of Bim BH3's signal on the same receptor and array stood at 0.04.

B11: ZNFX1 (peptide)
chain: HERCQQPCKRLLICSHKCQEPCIGEC
In turn, B11 had an SPOT signal as a fraction of Bim BH3's signal on the same receptor and array of 0.03.

B12: INCA1 (peptide)
chain: DQEEACASRQLHSLLSFSTVTARRNP
In the case of B12, the SPOT signal as a fraction of Bim BH3's signal on the same receptor and array is 0.1.

B13: MED17 (peptide)
chain: ELLRLRQHWKDRKVGDKILGDLSYRS
With B13, the SPOT signal as a fraction of Bim BH3's signal on the same receptor and array is 1.2.

B14: TNKS (peptide)
chain: HPKRKQVTELLLRKLANVNEKNKDFM
B14 had an SPOT signal as a fraction of Bim BH3's signal on the same receptor and array of 0.43.

B15: USP36 (peptide)
chain: HRTSNVLTLSLKRFLNFSGGKITKDV
In turn, B15 came in with an SPOT signal as a fraction of Bim BH3's signal on the same receptor and array of 0.35.

B16: RIMBP3 (peptide)
chain: RAELTGLARRLADRLRKLQETNLRAV
As for B16, the SPOT signal as a fraction of Bim BH3's signal on the same receptor and array worked out at 0.39.

B17: TDRD6 (peptide)
chain: HCQLRSVSQEIHRLSESMAQVYRGST
On to B17, for which the SPOT signal as a fraction of Bim BH3's signal on the same receptor and array was 0.04.

B18: TUBB4Q (peptide)
chain: FTGNNTAVQELKRVLEQFTATFRRKA
Molecule B18 returned an SPOT signal as a fraction of Bim BH3's signal on the same receptor and array of 0.7.

B19: RP1L1 (peptide)
chain: HRNTRNLAAFLGKALDLLRFPVKQLY
In turn, B19 displayed an SPOT signal as a fraction of Bim BH3's signal on the same receptor and array of 0.47.

B20: UPF2 (peptide)
chain: LFRIRLVCTILDTCGQYFDRGSSKRK
Turning to B20, the SPOT signal as a fraction of Bim BH3's signal on the same receptor and array amounted to 0.24.

B21: NAALAD2 (peptide)
chain: PFNIQDYAEALKNYAASIYNLSKKHD
Take B21: the SPOT signal as a fraction of Bim BH3's signal on the same receptor and array was determined as 0.05.

B22: IL31 (peptide)
chain: SDDVQKIVEELQSLSKMLLKDVEEEK
As for B22, the SPOT signal as a fraction of Bim BH3's signal on the same receptor and array stood at 0.03.

B23: GRIP1 (peptide)
chain: KFRHDEIISLLKNVGERVVLEVEYEL
Molecule B23 had an SPOT signal as a fraction of Bim BH3's signal on the same receptor and array of 0.03.

B24: MYH2 (peptide)
chain: SRELEEISERLEEAGGATSAQIEMNK
The molecule B24 gave an SPOT signal as a fraction of Bim BH3's signal on the same receptor and array of 0.02.

B25: UNC13B (peptide)
chain: RRFAKTIGKVDMQYADILSKDFPAYC
In the case of B25, the SPOT signal as a fraction of Bim BH3's signal on the same receptor and array came out at 0.45.

B26: PLEKHG4 (peptide)
chain: IQRMGKYALLLQELARACGGPTQELS
Regarding B26, the SPOT signal as a fraction of Bim BH3's signal on the same receptor and array was 0.08.

B27: ANKRD32 (peptide)
chain: ESEVQHLSQKLYDWSDSQNLKITGKA
Molecule B27 had an SPOT signal as a fraction of Bim BH3's signal on the same receptor and array of 0.03.

B28: MRPL41 (peptide)
chain: MGVLAAAARCLVRGLDRMSKWTSKRG
In turn, B28 registered an SPOT signal as a fraction of Bim BH3's signal on the same receptor and array of 0.42.

B29: HFM1 (peptide)
chain: NNDLSHIAGKLTYASQKYKNHIGTEI
Turning to B29, the SPOT signal as a fraction of Bim BH3's signal on the same receptor and array was determined as 0.12.

B30: PANK1 (peptide)
chain: FLRINMVSMKLLAYAMDFWSKGQLKA
Take B30: the SPOT signal as a fraction of Bim BH3's signal on the same receptor and array is 0.11.

B31: MED17 (peptide)
chain: ELLRLRQHWKLRKVLDKILGDLSYRS
Molecule B31 had an SPOT signal as a fraction of Bim BH3's signal on the same receptor and array of 0.46.

B32: TLR6 (peptide)
chain: TCELREFVKNIDQVSSEVLEGWPDSY
In turn, B32 came in with an SPOT signal as a fraction of Bim BH3's signal on the same receptor and array of 0.02.

B33: MRS2 (peptide)
chain: LENYYRLADDLSNAARELRVLIDDSQ
In turn, B33 displayed an SPOT signal as a fraction of Bim BH3's signal on the same receptor and array of 0.03.

B34: TLR5 (peptide)
chain: PEDLQDVGWFDHKLSQQILKKEKEKK
The molecule B34 showed an SPOT signal as a fraction of Bim BH3's signal on the same receptor and array of 0.05.

B35: KIAA0430 (peptide)
chain: NKDGKSVSNRLRRLLDNCGGKVLSIT
In turn, B35 came in with an SPOT signal as a fraction of Bim BH3's signal on the same receptor and array of 0.33.

B36: ABCA13 (peptide)
chain: VDKLKTLSETLLEMSSLFQRSGSGQM
With B36, the SPOT signal as a fraction of Bim BH3's signal on the same receptor and array came to 0.03.

B37: PCIF1 (peptide)
chain: KDSVEGICSKIYHISLEYVKRIREKH
Molecule B37 returned an SPOT signal as a fraction of Bim BH3's signal on the same receptor and array of 0.08.

B38: C10orf79 (peptide)
chain: EQKVKQKAADLLEMATFLQKRVEEEE
B38: the SPOT signal as a fraction of Bim BH3's signal on the same receptor and array turned out to be 0.02.

B39: MYO15A (peptide)
chain: YGRLRPRARSDSKASTAINWLTKKFL
Regarding B39, the SPOT signal as a fraction of Bim BH3's signal on the same receptor and array was 1.49.

B40: EPS8 (peptide)
chain: LDDIEFFITKLQKAAEAFSELSKRKK
The molecule B40 came in with an SPOT signal as a fraction of Bim BH3's signal on the same receptor and array of 0.13.

B41: LYZ (peptide)
chain: VFERCELARTDKRLGMDGYRGISLAN
Molecule B41 gave an SPOT signal as a fraction of Bim BH3's signal on the same receptor and array of 0.22.

B42: JAKMIP2 (peptide)
chain: DVNIPDLIKQLDILGDNGNLRNEEQV
B42 yielded an SPOT signal as a fraction of Bim BH3's signal on the same receptor and array of 0.02.

B43: LRRC41 (peptide)
chain: PDGLLEFAKRLERWGRGAFGHLRLFQ
Molecule B43 displayed an SPOT signal as a fraction of Bim BH3's signal on the same receptor and array of 0.46.

B44: KLHL15 (peptide)
chain: AGDVEGFCSSIHDTSVSAGFRALYEE
B44 showed an SPOT signal as a fraction of Bim BH3's signal on the same receptor and array of 0.02.

B45: MURC (peptide)
chain: RERLRQSGERLRQSGERLRQSGERFK
With B45, the SPOT signal as a fraction of Bim BH3's signal on the same receptor and array is 0.55.

B46: NLRP1 (peptide)
chain: LKELDLSGNSLSHSLVKSLCKTLRRP
B46 came in with an SPOT signal as a fraction of Bim BH3's signal on the same receptor and array of 0.28.

B47: OTOF (peptide)
chain: DFMGRTFAKPDVKMADEAYCPPRFPP
B47 registered an SPOT signal as a fraction of Bim BH3's signal on the same receptor and array of 0.03.

B48: NUB1 (peptide)
chain: TDENKKVGLADKDLAKQYSDRLECCE
Turning to B48, the SPOT signal as a fraction of Bim BH3's signal on the same receptor and array turned out to be 0.02.

B49: ARHGAP4 (peptide)
chain: EVLAGPLAQRDSHIAEDVGRLVKKSR
As to B49, the SPOT signal as a fraction of Bim BH3's signal on the same receptor and array was 0.04.

B50: USP36 (peptide)
chain: AIKPVSFIRDLKKILRHFRFGNQEDA
B50 registered an SPOT signal as a fraction of Bim BH3's signal on the same receptor and array of 0.42.

B51: C12orf48 (peptide)
chain: QNSRDPFCKAIEEVAQDLDLRIKNII
B51 yielded an SPOT signal as a fraction of Bim BH3's signal on the same receptor and array of 0.03.

B52: SLC28A1 (peptide)
chain: SISLTPVAKGLENMGADFLESLEEGQ
B52 returned an SPOT signal as a fraction of Bim BH3's signal on the same receptor and array of 0.02.
